From IntAct's records for PubMed 10646860

B1: Apoptosis-stimulating of p53 protein 2 (Homo sapiens), Q13625 (parent)
chain: MMPMFLTVYLSNNEQHFTEVPVTPETICRDVVDLCKEPGESDCHLAEVWCGSERPVADNERMFDVLQRFGSQRNEVRFFLRHERPPGRDIVSGPRSQDPSLKRNGVKVPGEYRRKENGVNSPRMDLTLAELQEMASRQQQQIEAQQQLLATKEQRLKFLKQQDQRQQQQVAEQEKLKRLKEIAENQEAKLKKVRALKGHVEQKRLSNGKLVEEIEQMNNLFQQKQRELVLAVSKVEELTRQLEMLKNGRIDSHHDNQSAVAELDRLYKELQLRNKLNQEQNAKLQQQRECLNKRNSEVAVMDKRVNELRDRLWKKKAALQQKENLPVSSDGNLPQQAASAPSRVAAVGPYIQSSTMPRMPSRPELLVKPALPDGSLVIQASEGPMKIQTLPNMRSGAASQTKGSKIHPVGPDWSPSNADLFPSQGSASVPQSTGNALDQVDDGEVPLREKEKKVRPFSMFDAVDQSNAPPSFGTLRKNQSSEDILRDAQVANKNVAKVPPPVPTKPKQINLPYFGQTNQPPSDIKPDGSSQQLSTVVPSMGTKPKPAGQQPRVLLSPSIPSVGQDQTLSPGSKQESPPAAAVRPFTPQPSKDTLLPPFRKPQTVAASSIYSMYTQQQAPGKNFQQAVQSALTKTHTRGPHFSSVYGKPVIAAAQNQQQHPENIYSNSQGKPGSPEPETEPVSSVQENHENERIPRPLSPTKLLPFLSNPYRNQSDADLEALRKKLSNAPRPLKKRSSITEPEGPNGPNIQKLLYQRTTIAAMETISVPSYPSKSASVTASSESPVEIQNPYLHVEPEKEVVSLVPESLSPEDVGNASTENSDMPAPSPGLDYEPEGVPDNSPNLQNNPEEPNPEAPHVLDVYLEEYPPYPPPPYPSGEPEGPGEDSVSMRPPEITGQVSLPPGKRTNLRKTGSERIAHGMRVKFNPLALLLDSSLEGEFDLVQRIIYEVDDPSLPNDEGITALHNAVCAGHTEIVKFLVQFGVNVNAADSDGWTPLHCAASCNNVQVCKFLVESGAAVFAMTYSDMQTAADKCEEMEEGYTQCSQFLYGVQEKMGIMNKGVIYALWDYEPQNDDELPMKEGDCMTIIHREDEDEIEWWWARLNDKEGYVPRNLLGLYPRIKPRQRSLA

Variants of: B1
Settings: with apcl_human APC2, O95996
Chain of apcl_human APC2, O95996 (O95996 whole entry): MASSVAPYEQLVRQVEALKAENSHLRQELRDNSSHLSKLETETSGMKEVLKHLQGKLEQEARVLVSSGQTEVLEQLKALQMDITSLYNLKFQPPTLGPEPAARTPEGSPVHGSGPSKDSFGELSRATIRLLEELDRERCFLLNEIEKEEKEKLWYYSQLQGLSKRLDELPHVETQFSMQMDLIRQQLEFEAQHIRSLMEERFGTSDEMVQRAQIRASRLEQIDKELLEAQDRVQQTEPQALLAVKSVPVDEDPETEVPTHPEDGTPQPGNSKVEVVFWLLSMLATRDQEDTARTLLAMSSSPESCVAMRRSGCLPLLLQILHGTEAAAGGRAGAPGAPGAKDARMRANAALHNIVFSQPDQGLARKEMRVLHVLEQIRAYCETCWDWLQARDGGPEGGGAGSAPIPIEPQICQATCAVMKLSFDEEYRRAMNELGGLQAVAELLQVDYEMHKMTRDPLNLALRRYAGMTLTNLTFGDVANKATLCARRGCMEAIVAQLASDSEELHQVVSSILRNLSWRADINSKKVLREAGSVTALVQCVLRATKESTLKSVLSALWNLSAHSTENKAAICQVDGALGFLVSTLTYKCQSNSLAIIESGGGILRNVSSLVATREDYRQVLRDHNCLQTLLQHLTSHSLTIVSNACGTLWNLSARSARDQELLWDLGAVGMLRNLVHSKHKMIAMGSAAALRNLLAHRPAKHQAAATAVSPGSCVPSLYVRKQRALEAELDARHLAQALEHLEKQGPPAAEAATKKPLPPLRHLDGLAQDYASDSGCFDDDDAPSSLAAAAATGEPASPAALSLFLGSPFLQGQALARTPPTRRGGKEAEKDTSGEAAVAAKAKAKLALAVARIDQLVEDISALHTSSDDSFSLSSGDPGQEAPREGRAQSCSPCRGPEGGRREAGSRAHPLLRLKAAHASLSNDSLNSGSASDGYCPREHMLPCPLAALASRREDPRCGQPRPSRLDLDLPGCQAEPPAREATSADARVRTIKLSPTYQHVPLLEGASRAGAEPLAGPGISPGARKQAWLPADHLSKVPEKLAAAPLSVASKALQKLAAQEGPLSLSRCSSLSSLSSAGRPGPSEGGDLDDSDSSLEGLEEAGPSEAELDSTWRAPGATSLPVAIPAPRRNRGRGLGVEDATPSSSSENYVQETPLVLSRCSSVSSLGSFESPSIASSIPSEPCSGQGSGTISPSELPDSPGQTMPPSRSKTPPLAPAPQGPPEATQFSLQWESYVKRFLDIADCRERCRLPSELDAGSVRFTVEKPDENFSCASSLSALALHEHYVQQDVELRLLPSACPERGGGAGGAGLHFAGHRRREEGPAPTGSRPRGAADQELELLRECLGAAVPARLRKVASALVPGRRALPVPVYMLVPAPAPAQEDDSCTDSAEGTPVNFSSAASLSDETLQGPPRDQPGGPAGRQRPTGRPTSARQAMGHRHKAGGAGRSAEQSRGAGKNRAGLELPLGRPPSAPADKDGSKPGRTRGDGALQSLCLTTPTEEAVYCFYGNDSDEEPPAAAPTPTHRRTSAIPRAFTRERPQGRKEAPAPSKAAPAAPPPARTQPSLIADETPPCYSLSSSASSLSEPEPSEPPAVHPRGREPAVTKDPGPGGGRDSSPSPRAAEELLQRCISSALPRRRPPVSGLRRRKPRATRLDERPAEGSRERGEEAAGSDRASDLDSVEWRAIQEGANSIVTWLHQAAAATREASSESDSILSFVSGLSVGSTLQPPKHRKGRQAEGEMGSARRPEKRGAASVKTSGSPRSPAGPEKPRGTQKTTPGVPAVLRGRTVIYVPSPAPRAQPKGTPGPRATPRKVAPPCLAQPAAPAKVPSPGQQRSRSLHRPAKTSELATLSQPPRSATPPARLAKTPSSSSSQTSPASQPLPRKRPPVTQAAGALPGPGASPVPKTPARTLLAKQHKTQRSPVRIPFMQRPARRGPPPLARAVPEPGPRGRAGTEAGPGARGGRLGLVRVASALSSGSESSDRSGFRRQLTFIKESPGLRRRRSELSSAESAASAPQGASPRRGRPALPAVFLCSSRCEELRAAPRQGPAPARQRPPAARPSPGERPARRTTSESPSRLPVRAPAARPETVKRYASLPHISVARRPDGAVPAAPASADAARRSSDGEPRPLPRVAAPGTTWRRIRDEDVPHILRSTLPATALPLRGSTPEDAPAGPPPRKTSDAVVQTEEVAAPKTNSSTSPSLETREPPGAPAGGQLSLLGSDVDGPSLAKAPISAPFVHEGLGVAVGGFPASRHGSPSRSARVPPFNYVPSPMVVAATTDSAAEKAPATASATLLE

Row | effect of a mutation on the interaction | Variant
1 | disrupting interaction strength | W1098K
